According to patent publication US20060078880:

Tests used:
[1] = test system: C7.GAT C7 finger-3 helix RSDERKR replaced by TSGNLVR (SEQ 51) (synthetic); experiment: EMSA; details: [none]; gel mobility shift; exact target oligo not stated
[2] = test system: C7.GCG (C7) none; finger-3 helix RSDERKR (SEQ 50) (synthetic); experiment: EMSA; details: CITED Segal 1999, exact target oligo not stated; cited from earlier work

Row | Sequence | Kd [1] | Kd [2]
1 | GATTGGGCG (double strand) [C7.GAT target, finger-2 subsite TGG] | 400 nM | –
2 | GCGTGGGCG (double strand) [C7 target, finger-2 subsite TGG] | – | 0.5 nM
